Measured values published in article PMC12228687, “Harnessing protein language model for structure-based discovery of highly efficient and robust PET hydrolases” (Nature Communications, 2025).

B1: KbPETase (APET-14) (Kibdelosporangium banguiense) (protein)
chain: DEIGQAPTAANITGDGSFSTSSSAIFGQSGFGGGTAYYPNTAGKYPVVAFAPGFLSDWNALNWLGPRVASWGFVVVGVNTNTPFDFPDARGDQLLAALNWAVNSAPAAVRDKADGSRRGVSGWSMGGGGTLEALAKDTTGTVKAGVPLAPWHTNKTWSKVTEPVFIIGGQNDSVAAPASHAIPFYNSLGGPKSYLERAGADHFFPTKSNGTVSRAVVSFFKRHVSADTRFTPFLCGFSGLDVSNFRSNSC
notes: predicted signal peptide (SignalP) removed; N-terminal His-tag, pET-28a(+) NdeI/NotI; E. coli BL21(DE3); Ni-NTA purified
B2: LCC (unidentified prokaryotic organism) (protein)
chain: QSNPYQRGPNPTRSALTADGPFSVATYTVSRLSVSGFGGGVIYYPTGTSLTFGGIAMSPGYTADASSLAWLGRRLASHGFVVLVINTNSRFDYPDSRASQLSAALNYLRTSSPSAVRARLDANRLAVAGHSMGGGGTLRIAEQNPSLKAAVPLTPWHTDKTFNTSVPVLIVGAEADTVAPVSQHAIPFYQNLPSTTPKVYVELDNASHFAPNSNNAAISVYTISWMKLWVDNDTRYRQFLCNVNDPALSDFRTNNRHCQ
notes: wild-type LCC (LCC-ICCG is a separate variant)

Columns and labels:
purified protein [1] = substrate: CCCC(=O)Oc1ccc([N+](=O)[O-])cc1; test: purified protein; assay type: biochemical, Kibdelosporangium banguiense; conditions: 10 mM potassium phosphate pH 8.0 (stock buffer), 50 °C, 3 min, 0.5 µg/mL enzyme, 0.2-1.8 mM pNPB
purified protein [2] = substrate: CCCC(=O)Oc1ccc([N+](=O)[O-])cc1; test: purified protein; assay type: biochemical, unidentified prokaryotic organism; conditions: 10 mM potassium phosphate pH 8.0 (stock buffer), 50 °C, 3 min, 0.5 µg/mL enzyme, 0.2-1.8 mM pNPB

| Protein | Km (purified protein [1]) [mM] | kcat (purified protein [1]) [s⁻¹] | kcat/Km (purified protein [1]) [M⁻¹ s⁻¹] | Km (purified protein [2]) [mM] | kcat (purified protein [2]) [s⁻¹] | kcat/Km (purified protein [2]) [M⁻¹ s⁻¹] |
| --- | --- | --- | --- | --- | --- | --- |
| B1 | 1.04 ± 0.201 | 0.27 ± 0.021 | 263 ± 31 |  |  |  |
| B2 |  |  |  | 1.053 ± 0.289 | 0.186 ± 0.021 | 208 ± 17 |
